From patent US20030113743A1 (BAYLOR COLLEGE OF MEDICINE HYBRITECH, published 2003)

Assays:
Assay in all cases: covalent complex formation, SDS-PAGE and Western blot with HK1G586.1
antichymotrypsin (ACT) = target: T1, antichymotrypsin (ACT) (human, UniProt P01011 24-423)
T1 construct: Serpin, used at 20 µM; also called 1-antichymotrypsin
T1 sequence (looked up): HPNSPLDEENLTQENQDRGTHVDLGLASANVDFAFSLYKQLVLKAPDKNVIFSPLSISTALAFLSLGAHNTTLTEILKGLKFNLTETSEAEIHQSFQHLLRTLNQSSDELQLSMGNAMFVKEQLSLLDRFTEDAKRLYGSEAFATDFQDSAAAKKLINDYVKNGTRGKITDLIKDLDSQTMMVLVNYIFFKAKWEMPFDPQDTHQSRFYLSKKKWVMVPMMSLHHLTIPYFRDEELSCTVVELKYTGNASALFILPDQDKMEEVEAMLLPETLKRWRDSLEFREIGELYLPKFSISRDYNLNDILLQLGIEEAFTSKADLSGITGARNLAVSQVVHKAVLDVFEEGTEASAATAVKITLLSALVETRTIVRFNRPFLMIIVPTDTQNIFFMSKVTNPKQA
Method: (§1) FIG. 18 depicts Western blot analysis of hK2 incubated with protease inhibitors. Each sample was separated on a 8-25% gradient SDS-PAGE, blotted and probed with HK1G586.1. hK2 was incubated for 4 hours at 37° C. with the following inhibitors: Lane 1, antichymotrypsin (ACT); lane 2, alpha 2-antiplasmin; lane 3, anti-thrombin III; lane 4, alpha 1-protease inhibitor (anti-trypsin); lane 5, alpha 2-macroglobulin; lanes 1 and 2 show a covalent complex of the predicted Mr of 90-100 kD. Serpin inhibitors were employed at 20 μM, macroglobulin at 2.8 μM, and hK2 at 0.175 μM.
(§2) To test for covalent complex formation, 0.175 μM hK2 was incubated with 20 μM of inhibitor at pH 8 in 100 mM borate buffer. Inhibitors tested were 1-antichymotrypsin, 1-antitrypsin, 1-antiplasmin, antithrombin and 2-macroglobulin. To 5 μl of hK2 (10 μg/ml) was added the calculated μg of inhibitor prepared in 100 mM borate buffer and, if needed, each sample brought up to a total volume of 10 μl. Samples were incubated for 3 hours at 37° C. whereupon 1.5 μl of 7 X PhastSystem SDS sample buffer containing 35% 2-mercaptoethanol was added and the sample boiled for 3 minutes in a water bath. Samples were diluted 1/4 in SDS sample buffer prior to application to SDS/PAGE and Western analyses.

alpha 2-antiplasmin = target: T2, alpha 2-antiplasmin (human, UniProt P08697 40-491, limits assumed)
T2 construct: Serpin, used at 20 µM; also called α2-antiplasmin; 1-antiplasmin
T2 sequence (looked up): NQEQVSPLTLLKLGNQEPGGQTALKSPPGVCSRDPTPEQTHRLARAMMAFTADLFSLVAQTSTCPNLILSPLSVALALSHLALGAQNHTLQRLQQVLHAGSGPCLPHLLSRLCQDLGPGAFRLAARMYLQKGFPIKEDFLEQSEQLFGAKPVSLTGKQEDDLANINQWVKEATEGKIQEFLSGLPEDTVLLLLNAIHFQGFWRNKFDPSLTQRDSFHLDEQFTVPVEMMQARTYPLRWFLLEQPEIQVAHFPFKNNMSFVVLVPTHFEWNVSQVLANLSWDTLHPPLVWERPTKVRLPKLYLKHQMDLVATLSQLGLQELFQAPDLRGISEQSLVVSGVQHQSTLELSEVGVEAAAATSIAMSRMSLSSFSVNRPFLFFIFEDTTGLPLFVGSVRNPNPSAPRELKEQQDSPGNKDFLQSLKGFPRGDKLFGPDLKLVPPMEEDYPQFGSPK
Method: as §1, §2

antithrombin III = target: T3, antithrombin III (human, UniProt P01008 33-464)
T3 construct: Serpin, used at 20 µM
T3 sequence (P01008 33-464 limits assumed): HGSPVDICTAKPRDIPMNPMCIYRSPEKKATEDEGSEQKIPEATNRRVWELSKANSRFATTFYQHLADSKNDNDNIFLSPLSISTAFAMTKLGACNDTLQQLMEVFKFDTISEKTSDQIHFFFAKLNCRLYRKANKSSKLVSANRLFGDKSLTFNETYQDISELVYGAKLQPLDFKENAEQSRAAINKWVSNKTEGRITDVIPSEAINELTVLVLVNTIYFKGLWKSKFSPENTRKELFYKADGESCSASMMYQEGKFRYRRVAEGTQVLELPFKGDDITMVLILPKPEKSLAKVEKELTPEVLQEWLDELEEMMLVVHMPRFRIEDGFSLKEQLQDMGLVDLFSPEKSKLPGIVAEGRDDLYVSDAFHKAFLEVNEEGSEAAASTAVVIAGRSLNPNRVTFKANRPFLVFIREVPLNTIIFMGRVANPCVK
Method: as §1, §2

[1] = target: T4, α1-antitrypsin (alpha 1-protease inhibitor) (human, UniProt P01009 25-418)
T4 construct: Serpin, used at 20 µM
T4 sequence (P01009 25-418 limits assumed): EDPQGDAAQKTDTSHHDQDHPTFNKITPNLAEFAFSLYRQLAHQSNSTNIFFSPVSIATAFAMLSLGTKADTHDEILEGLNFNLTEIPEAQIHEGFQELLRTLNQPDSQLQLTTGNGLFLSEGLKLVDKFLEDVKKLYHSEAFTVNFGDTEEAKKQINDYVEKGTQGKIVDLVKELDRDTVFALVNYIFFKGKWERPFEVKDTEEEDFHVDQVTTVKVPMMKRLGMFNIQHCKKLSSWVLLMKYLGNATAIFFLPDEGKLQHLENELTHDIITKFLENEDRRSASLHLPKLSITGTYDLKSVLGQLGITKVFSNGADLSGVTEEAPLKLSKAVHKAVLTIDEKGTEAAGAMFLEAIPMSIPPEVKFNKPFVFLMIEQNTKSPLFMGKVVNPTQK
Method: as §1, §2

binding result (antichymotrypsin (ACT)): binds
binding result (alpha 2-antiplasmin): binds
B1: wild type mature hK2 (prostate-specific glandular kallikrein protein) (enzyme)
chain: not shown
notes: From spent medium of AV12-hK2, PC3-hK2 and DU145-hK2 cells, LNCaP medium, seminal fluid or prostate tissue, depending on the experiment; also called native hK2
binding result (antithrombin III): no binding (tested: 20 µM inhibitor, 0.175 µM hK2)
binding result [1]: no binding (tested: 20 µM inhibitor, 0.175 µM hK2)
